In the test the target is SARS-CoV-2 stabilized S trimer (HexaPro) (SARS-CoV-2). The test is described as follows: negative-stain EM.

For orientation: stoichiometry N means the number of molecules, sites or subunits per partner or assembly. With “SARS-CoV-2 stabilized S trimer (HexaPro) (domain or fragment)”, the stoichiometry N stood at 3.
